Biological target: human CD200 activation receptors (CD200AR) (human)
Assay: cell-based or functional assay

Binder: Ac-CLFNTFGFGAISGTA-NH2 [human CD200AR-L peptide P4A10]
- T-cell secretion of IFNγ after treatment of iDCs with P4A10: 5.4 fold
- T-cell secretion of IL6 after treatment of iDCs with P4A10: 5.6 fold
- T-cell secretion of RANTES after treatment of iDCs with P4A10: 16.3 fold
- T-cell secretion of TNFα after treatment of iDCs with P4A10: 16.6 fold
